Experimental findings from the nanobody polyreactivity screen of Harvey et al. (2022) are described below.

The data set in a line: yeast display, Sf9 membrane polyspecificity reagent, FACS + sequencing; frameworks hold sequencing errors. In a few lines:
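In a synthetic yeast display library (Saccharomyces cerevisiae BJ5465), nanobody expression was induced with galactose for 36–48 hours. FACS gates were set low and high (top ~1%) using anti-HA fluorescence for expression and streptavidin fluorescence for binding of the Sf9 membrane reagent. Each polyreactivity label is drawn from the gate of origin.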
With “QVQLVESGGGLVQAGGSLRLSCAASGRIFYGYTMGWYRQAPGKERELVAAISSSGGSTYYADSVKGRFTISRDNAKNTVYLQMNSLIPEDTAVYYCAAYVPYSPYHVEFNYWGQGTQVTVSS”, the “polyreactivity (PSR sort gate)” value was “high polyreactivity”.

For the sequence “QVQLVESGGGLVQAGGSLRLSCAASGRIFNFYAMGWYRQAPGKERELVAAITRGGSTYYADSVKGRFTISRDNAKNTVYLQMNSLKPEDTAVYYCNALNRYYDGDYYYWGQGTQVTVSS”, the “polyreactivity (PSR sort gate)” value was “high polyreactivity”.

As for “QVQLVESGGGLVQAGGSLRLSCAASGRTFGNYAMGWYRQARGKERELVASISRRGGSTYYADSVKGRFTISRENAKNTVYLQMTSLKPDDTAVFYCATLRGRQRFGYDYWGQGTQVTVSS”, the “polyreactivity (PSR sort gate)” value is recorded as “high polyreactivity”.

For “QVQLVESGGGLVQAGGSLRLSCAASGFIFGNYVMGWYRPAPGKERELVAAISESGSRTYYADSVKGRFTISRDNAKNTVYLQMNSLKPEDTAVYYCAAALFSYYGEYDYWGQGTQVTVSS”, the “polyreactivity (PSR sort gate)” value was “low polyreactivity”.

As for “QVQLVESGGGLVQAGGSLRLSCAAYGSTFPSYAMGSNRQAPGKERELVAAISWTGGTTYFADSVKGRFTISRDNAKNTVYLQMNSLKPEDTAVYYCNAKDGGGSQDQAQKRPIIRFDYWGQGSQVTVSS”, the “polyreactivity (PSR sort gate)” value is listed as “high polyreactivity”.

For “QVQLVESGGGLVQAGGSLRLSCAASGSTFAPYAMGWYRQAPGTERELVAALTTGGSTNYADYVKGRFTISRDNATNTVYLQMNSLKPEDTAVYYCNAEYGGGVDGTYKYYSEYDYWGQGTQVTVSS”, the “polyreactivity (PSR sort gate)” value is on record as “low polyreactivity”.

On to “QVQLVESGGGLVQAGGSLRLSCAASGFIFAASALGWSRQAAGKEREFVAAISNSGTSTYYADSVKGRFTISRDNAKNTVYLQMNSLKPEDTAVYYCAAPWSTAYDYWGQGTQVTVSS”, for which the “polyreactivity (PSR sort gate)” value is given as “high polyreactivity”.

As for “QVQLVESGGGLVQAGGSLRLSCAASGIIFIYNAMGWYRQAPGKERELVGAIRRSGSPSYADSVKGRFTISRDNAKNTVYLQMNSLKPEDTAVYYCAADTSTWFGAYYLRDPYDYWGQGTQVTVSS”, the “polyreactivity (PSR sort gate)” value was “low polyreactivity”.

With “QVQLVESGGGLVQAGGSLRLSCAASGNIFRKNAMGWYRQAPGKERELVAAITSVGSTNYADSVKGRFTISRDNAKNTVYLQMTSLKPEDTAVYYCDARSQIYYRYRSYGYWGQGTQVTVSS”, the “polyreactivity (PSR sort gate)” value is on record as “high polyreactivity”.

Regarding “QVQLVESGGGLVQAGGSLRLSCAASGRTLGGYAMGWYRQAPGKERELVAVITWNGGSTYADSVKGRFTISRDNAKNTVYLQMNSLKPEDTAVYYCAADRFNKPYYYWGQGTQVTVSS”, the “polyreactivity (PSR sort gate)” value is reported as “high polyreactivity”.

On to “QVQLVESGGGLVQAGGSLRLSCAASGTIFRLYTMGWYSQAPGKERELVAAITGSGDSTYYADSVKGRFTISRDNAKNTVYLQMNSLKPEDTAFYYFAAKLSRVKYGYWGQGTQVTVSS”, for which the “polyreactivity (PSR sort gate)” value is recorded as “high polyreactivity”.

“QVQLQESGGGLVQAGGSLRLSCAASGTISQEDWKGWYRQAPGKEREFVAAIGLGSNTNYADSLKGRFTISRDNAKNTVYLQMNSLKQEDTAVYYCAVSVWQYSDHVYRGQGTQVTVSS”: the “polyreactivity (PSR sort gate)” value was “low polyreactivity”.

On to “QVQLVESGGGLVQAGGSLRLSCAASGSTFPKYAMGWYRQAPGKERELVASISVTTGSTYYADSVKGRFTISRDNAKNTVYLQMNSLNPEDTAVYYCAKRTYSRKFRGAYNYWGQGTQVTVSS”, for which the “polyreactivity (PSR sort gate)” value was “high polyreactivity”.

Turning to “QVQLVESGGGLVQAGGSLRLSCAASGTFGVYAMGWYRQSPGKERELVAVITDSGGTNYADSVKGRFTISRDNAKNTVYLQMNSLKPEDTAVYYCNTDAGDYYGENYWGQGTQVTVSS”, the “polyreactivity (PSR sort gate)” value is on record as “low polyreactivity”.

On to “QVQLVESGGGLVQAGGSLRLSCAASGRIFGQNAMGWYRQAPGKERELVAAITWNGGRTYYADSVKGRFTISRDNAKNTVYLQMNSLKPEDTAVYYCNADGKHRLRDYWGQGTQVTVSS”, for which the “polyreactivity (PSR sort gate)” value was “high polyreactivity”.

“QVQLVESGGGLVQAGGSLRLSCAASGSISNRYAMGWYRQAPGKERELVAAISTGGGTTYYADSVKGRFTISRDNAKNTVYLQMNSLKPEDTAVYYCAADDWRYYRELDYWGQGTQVTVSS”: the “polyreactivity (PSR sort gate)” value is listed as “low polyreactivity”.

Regarding “QVQLVESGGGLVQAGGRLRLSCAASGLIFYVYAMGWYRQEPGKERELVASITWSGGRTYYADSVKGRFTISRDNEKNTVYLQMNSLKPEDTAVYYCATDLIQGAAPFRYDYWGQGTQVTVSS”, the “polyreactivity (PSR sort gate)” value is “low polyreactivity”.

In the case of “QVQLVESGGGLVQAGGSLRLSCAASGLTFYYYVMGWYRQAPGKERELVAAISKSGGRTYYADSVKGRFTISRDNAKNTVYLQMNSLKPEDTAVYYCAALYTPNYTAYDSWGQGTQVTVSS”, the “polyreactivity (PSR sort gate)” value was “high polyreactivity”.

Take “QVQLVESGGGLVQAGGRLRLSCAASGSIFYRNAMGWYRQAPGKERELVAAIRYSGDNTYYADSVKGRFTISRDNAKNTVYLQMNSLKPEDTAVYYCAADFPDYEYWGQGTQVTVSS”: the “polyreactivity (PSR sort gate)” value is “high polyreactivity”.

On to “QVQLVESGGGLVQAGGSLRLSCAASGSIFKYYAMGWYRQAPGKERELVAAIDWSGGNTYADSVKGRFTISRDNAKNTVYLQMNSLKPEDTAVYYCNAPGFRRLWGFGYDYWGQGTQVTVSS”, for which the “polyreactivity (PSR sort gate)” value is reported as “high polyreactivity”.

In the case of “QVQLVESGGGLVQAGGSLRLSCAAYGSTFKRNAMGCYRQAPGKEREFVAAITWSGGSTYYADSVKGRFTISRDNAKNTVYLQMNSLKPEDTAVYYCNADRFSSRHSYDYWGQGTQVTVSS”, the “polyreactivity (PSR sort gate)” value is listed as “low polyreactivity”.

Take “QVQLVESGGGLVQAGRSNRISCAASGGIFSYYAMGWYRQAPGKEREFVAAIDWGGGSTYYADSLKGRFTLSRDNAKNTVYLQMNSLKPEDTAVYYCAAEIYPIGWDDYDYWGQGTQVTVSS”: the “polyreactivity (PSR sort gate)” value was “low polyreactivity”.

For “QVQLVDSGGGLVQAGGSLRLICAASGSIFGKNAMGWYRQAPGKERELVAAISKRGGTTYYADSVKGRFTISRDNAKNTFYLLMNSLKPEDTAVYYCAAYYYVHRSSHYLSPYDFWGQVTQVTVSS”, the “polyreactivity (PSR sort gate)” value was “high polyreactivity”.

On to “QVQLVESGGGLVQAGGSLRLSCAASGSTFRRYAMGWYRQAPGKERELVATITSGGRTNYADSVKGRFTISRDNAKNTVYLQMNSLKPEDTAVYYCADRPYFYERSAGYYWGQGTQVTVSS”, for which the “polyreactivity (PSR sort gate)” value was “high polyreactivity”.

As for “QVQLVESGGGLVQAGGSLRLSCAASGSTLSYYAMGWYRQAPGKERELVAAISFSGGITYYADSVKGRFTISRDNAKNTVYLQMNSLKPEDTAVYYCNAEYQVYRAYVIWYDYWGQGTQVTVSS”, the “polyreactivity (PSR sort gate)” value is recorded as “high polyreactivity”.

As to “QVQLVESGGGLVQAGGSLRLICAASGSIFYANAMGWYRQAPGKEREFVAANSSSGGGTSYADSVKGRFTISRDNAKNTVYLQMNSLKPEDTAVYYCAARVTYGGIPARQIYDYWGQGTQVTVSS”, the “polyreactivity (PSR sort gate)” value is listed as “low polyreactivity”.

On to “QVQLVESGGGLVQAGGSLRLSCAASGRIFRYYAMGWYRQAPGKERELVAAITSGGNTYYADSVKGRFTISRDNAKNTVYLQMNSLKPVDTAVYYCADGRNLYHFYYWGQGTQVTVSS”, for which the “polyreactivity (PSR sort gate)” value is listed as “high polyreactivity”.

Take “QVQLVESCGGLVQAGGSLRLSCAASGSIFSRNTMGWYRQAPCKERELVAGISSSGSRTYYADSVKGRFTISRDNSKNTVYLQMNSLKPEYTAVYYCAAEHQRSRGRRYYIGYDYWGQGTQVTVSS”: the “polyreactivity (PSR sort gate)” value is “low polyreactivity”.

“QVQIVESVGGLVQAGGSLRLSCAASGSTVERYAMGWYRKAPGKERELVARITWSGGSTYYADSVKGRFTISLDNAKNTVYVQMNSLKPEDTAVYYCNRDTRYPGYWRVFAKNNYWGQGTQVTVSS”: the “polyreactivity (PSR sort gate)” value is reported as “high polyreactivity”.

Turning to “QVQLQESGGGQVQAGGSLRLSCAASGTIFLYAFMGWYRQAPGKERELVAAIDVGTTTNYADSVKGRFTISRDNAKNTGYLQMNSLKPEDTAVYYCAANLGYLEDLGYWGQGTQVTVSS”, the “polyreactivity (PSR sort gate)” value is “low polyreactivity”.

In the case of “QVQLVESGGGLVQAGGSLSLSCAASGSIFLRNAMGWYRPAPGKERELVAAITRVGSTYADSVKGRFTISRDNAKNTVYLQMNSLKPEDTAVYYCAAVSGVRSGPWRYDYWGQGTQVTVSS”, the “polyreactivity (PSR sort gate)” value is given as “high polyreactivity”.

In the case of “QVQLVESGGGLVQAGGSLRLSCAASGSIFYNAMGWYRQAPGKERELVAAISQRGTRTYYADSVKGRFTISRDNAKKTVYLQMNSLKPEDTAVYYCNRGGWRQYDSWGQGTQVTVSS”, the “polyreactivity (PSR sort gate)” value is “high polyreactivity”.

For “QVQLVESGGGLVQAGGSLRLSCAASGRTFKFYAMGWYRQAPGKERELVATITSGGSTYYADSVKGRFTISRDNAKNTVYLQMNSLIPEDTAVSYCNAAKTYPDVYEYDYWGQGTQVTVSS”, the “polyreactivity (PSR sort gate)” value is listed as “high polyreactivity”.

Consider “QVQLVESGGGLVQAGGSLRLSCAASGFTFPRYVMGWYRQAPGKEREFVAAITFSGGSTYYADSVKGRFTNSRDNAKNTVYLQMNSLKPEDTAVYYCAAGASLWRLGLKMGYWGQGTQVTVSS”, for which the “polyreactivity (PSR sort gate)” value is “low polyreactivity”.

Turning to “QVQLVESGGGLVPAGGSLRLSCAASGFIFRYNTMGWYRQAPGKERELVAAITSGDSTYYADSVKGRFTISRDNAKNTVYLQMNSLKPEDTAVFYCAAAAYDSNGRYYYWGQGTQVSVSS”, the “polyreactivity (PSR sort gate)” value is “high polyreactivity”.

In the case of “QVQLVESGGGLVQAGGSLRLSCAASGSIFYWNAMGWYRQAPGKDREFVAAISRSGGSTYYADSVKGRFTISRDNGKNTVYLQMYSLKPEDTAVYFCAADVFYFTYDYWGQCTQVTVSS”, the “polyreactivity (PSR sort gate)” value is recorded as “low polyreactivity”.

On to “QVQLVESGGGLVQAGGSLRLSCAPSGLTIVTYAMGWYRQAPRKERELVAAISRSGGSTYYADSVKGRFTISRDNAKNTVYLQMNSLKPEDSAVYYCNAYSYVDLWAVYRYDYWGQGTQVTVSS”, for which the “polyreactivity (PSR sort gate)” value was “high polyreactivity”.

Consider “QVQLVESGGGLVQAGGSLRLSCAASGRTFSNYAMGWYRQAPGKERELVAAISQRGGSTYYADSVKGRFTISRDNAKNTVYLQMNSLKPEDTAVYYCNARQTTATVGTGNYWGQGTQVTVSS”, for which the “polyreactivity (PSR sort gate)” value was “high polyreactivity”.

“QVQLVESGGGLVQAGGSLRLSCAASGITFSYNAMGWYRQAPGKEREFVAAISSNSDSTYYADSVKGRFTISRDTAKITVYLQMNSLKPEDTAVYYCAADTPDAPDYSGFYYWGQGTQVTVSS”: the “polyreactivity (PSR sort gate)” value is on record as “low polyreactivity”.

For the sequence “QVQLVESGGGLVQAGGSLRLSCAASGSIFEVNAMGWYRQAPGKERELVAGISNADSTNYADSVKGRFTISRDNAKNTVYLQMNSLKPEDTAVYYCATDLYRDHPKDLLGPEYDYWGQGTQVTVSS”, the “polyreactivity (PSR sort gate)” value is “low polyreactivity”.

Turning to “QVQLVESGGGLVQAGGSLRLSCAASGITFYEYTMGWYRQAPGKERELVAVIRKTGGSTYYADSVKGRFTISRDNAKNTVYLQMNSLKPEDTAVYYCAARKRYQRGYWGQGTLVTVSS”, the “polyreactivity (PSR sort gate)” value is listed as “high polyreactivity”.
